Source: US20160108416

What was measured:
[1] = target: T1, atToc33 (At1g02280) (UniProt O23680)
T1 sequence: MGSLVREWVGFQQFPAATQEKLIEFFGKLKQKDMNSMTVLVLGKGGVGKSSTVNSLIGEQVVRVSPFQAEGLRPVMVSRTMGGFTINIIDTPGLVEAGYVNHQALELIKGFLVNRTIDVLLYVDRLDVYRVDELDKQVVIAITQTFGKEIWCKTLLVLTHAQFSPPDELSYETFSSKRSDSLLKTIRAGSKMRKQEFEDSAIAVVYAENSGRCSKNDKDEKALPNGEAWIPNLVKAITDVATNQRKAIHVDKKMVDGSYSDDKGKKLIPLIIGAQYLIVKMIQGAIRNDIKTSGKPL

[2] = target: T2, atToc75-III (At3g46740) (UniProt Q9STE8)
T2 sequence: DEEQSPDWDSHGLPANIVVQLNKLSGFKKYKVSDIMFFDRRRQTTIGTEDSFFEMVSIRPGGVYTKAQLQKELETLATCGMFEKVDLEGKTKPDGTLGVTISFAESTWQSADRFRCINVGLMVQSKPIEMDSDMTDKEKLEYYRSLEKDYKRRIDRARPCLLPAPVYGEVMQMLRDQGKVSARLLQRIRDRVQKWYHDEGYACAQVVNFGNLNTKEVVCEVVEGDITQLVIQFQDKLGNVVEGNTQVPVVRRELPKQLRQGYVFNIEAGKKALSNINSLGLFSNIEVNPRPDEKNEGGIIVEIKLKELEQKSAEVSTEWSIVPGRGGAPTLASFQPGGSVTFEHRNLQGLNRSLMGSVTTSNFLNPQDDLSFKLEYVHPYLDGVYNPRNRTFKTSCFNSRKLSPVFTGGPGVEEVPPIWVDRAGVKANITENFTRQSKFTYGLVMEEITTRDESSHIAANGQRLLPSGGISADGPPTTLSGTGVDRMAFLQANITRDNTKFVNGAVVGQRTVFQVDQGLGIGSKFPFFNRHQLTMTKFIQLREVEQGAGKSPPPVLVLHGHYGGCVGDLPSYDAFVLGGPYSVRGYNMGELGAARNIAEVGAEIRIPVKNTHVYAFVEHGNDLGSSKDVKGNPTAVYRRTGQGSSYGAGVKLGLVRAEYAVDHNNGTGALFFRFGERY

[3] = target: atToc159 (At4g02510) (UniProt O81283)
UniProt O81283, sequence (O81283 whole entry): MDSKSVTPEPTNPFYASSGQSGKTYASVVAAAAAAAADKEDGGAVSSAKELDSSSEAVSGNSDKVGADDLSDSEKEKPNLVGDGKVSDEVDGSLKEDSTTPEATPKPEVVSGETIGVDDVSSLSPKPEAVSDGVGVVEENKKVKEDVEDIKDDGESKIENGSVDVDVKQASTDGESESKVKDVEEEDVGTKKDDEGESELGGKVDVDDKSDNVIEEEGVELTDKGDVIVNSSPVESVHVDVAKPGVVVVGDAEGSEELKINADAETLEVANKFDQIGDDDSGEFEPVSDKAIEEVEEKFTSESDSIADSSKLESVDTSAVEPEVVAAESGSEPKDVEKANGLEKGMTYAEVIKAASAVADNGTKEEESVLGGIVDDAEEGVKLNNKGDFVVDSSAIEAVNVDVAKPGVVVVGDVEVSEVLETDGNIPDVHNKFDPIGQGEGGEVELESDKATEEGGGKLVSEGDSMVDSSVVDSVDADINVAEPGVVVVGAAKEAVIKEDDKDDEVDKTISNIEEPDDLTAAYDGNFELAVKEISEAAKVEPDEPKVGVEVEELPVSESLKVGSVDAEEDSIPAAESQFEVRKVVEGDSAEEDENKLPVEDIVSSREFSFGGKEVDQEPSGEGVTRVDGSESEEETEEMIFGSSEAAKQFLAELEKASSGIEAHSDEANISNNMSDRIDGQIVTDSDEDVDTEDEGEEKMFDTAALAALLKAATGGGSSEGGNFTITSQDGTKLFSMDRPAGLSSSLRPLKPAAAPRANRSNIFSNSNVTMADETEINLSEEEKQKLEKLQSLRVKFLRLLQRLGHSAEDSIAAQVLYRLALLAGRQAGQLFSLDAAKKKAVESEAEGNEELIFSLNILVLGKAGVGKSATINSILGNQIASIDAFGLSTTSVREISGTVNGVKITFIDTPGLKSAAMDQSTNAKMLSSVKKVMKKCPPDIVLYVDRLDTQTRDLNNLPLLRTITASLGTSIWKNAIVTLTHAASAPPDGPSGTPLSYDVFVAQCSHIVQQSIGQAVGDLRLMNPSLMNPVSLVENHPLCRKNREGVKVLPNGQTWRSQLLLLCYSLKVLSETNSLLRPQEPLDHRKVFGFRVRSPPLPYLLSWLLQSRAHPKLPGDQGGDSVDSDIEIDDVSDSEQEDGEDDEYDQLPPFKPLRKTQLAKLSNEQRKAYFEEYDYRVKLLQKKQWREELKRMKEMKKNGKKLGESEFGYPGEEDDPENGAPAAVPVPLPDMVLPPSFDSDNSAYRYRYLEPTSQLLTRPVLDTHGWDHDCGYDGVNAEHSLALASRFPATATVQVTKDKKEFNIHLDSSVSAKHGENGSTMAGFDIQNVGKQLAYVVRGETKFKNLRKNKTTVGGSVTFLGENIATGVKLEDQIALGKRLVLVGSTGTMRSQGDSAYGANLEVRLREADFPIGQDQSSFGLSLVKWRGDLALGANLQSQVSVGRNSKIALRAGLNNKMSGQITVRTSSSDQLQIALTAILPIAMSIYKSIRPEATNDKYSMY

B1: GST-SP1flex (SP1 intermembrane space and cytosolic domains joined by a flexible linker, N-terminal GST tag) (enzyme, part only; not given: N-terminal GST tag)
chain, part: RSSGRDAEVLETVTRVNQLKELAQLLELDSKILPFIVAVSGRVGSETPIKCEHSGIRGVIVEETAEQHFLKHNETGSWVQDSALMLSMSKEVPWFLDDGTSRVHVMGARGATGFALTVGSEVFEESGRSLVRGTLDYLQGLKMLGVKRIERVLPTGIPLTIVGEAVKDDIGEFRIQKPDRGPFYVSSKSLDQLISNLGKWSRLYKIDSVLERRRRRQLQKRVLDAAAKRAELESEGSNGTRESISDSTKKEDAVPDLCVICLEQEYNAVFVPCGHMCCCTACSSHLTSCPLCRRRIDLAVKTYRH
In vitro ubiquitination (high-molecular-weight species of radiolabelled substrate) [1]: for each TOC substrate the extent of ubiquitination was enhanced in the presence of SP1 | In vitro ubiquitination (high-molecular-weight species of radiolabelled substrate) [2]: for each TOC substrate the extent of ubiquitination was enhanced in the presence of SP1 | In vitro ubiquitination (high-molecular-weight species of radiolabelled substrate) [3]: for each TOC substrate the extent of ubiquitination was enhanced in the presence of SP1
